Data set [1] addresses Bni5(1–313) used for FFF-MALS (S. cerevisiae) (UniProt P53890). Nature of the data set: field-flow fractionation with multi-angle light scattering.
For data set [2], the target named is T1, (His)8-3C protease cleavage site-Bni5 fusion (wild-type Bni5) (S. cerevisiae, UniProt P53890 1-448).
T1 sequence (looked up): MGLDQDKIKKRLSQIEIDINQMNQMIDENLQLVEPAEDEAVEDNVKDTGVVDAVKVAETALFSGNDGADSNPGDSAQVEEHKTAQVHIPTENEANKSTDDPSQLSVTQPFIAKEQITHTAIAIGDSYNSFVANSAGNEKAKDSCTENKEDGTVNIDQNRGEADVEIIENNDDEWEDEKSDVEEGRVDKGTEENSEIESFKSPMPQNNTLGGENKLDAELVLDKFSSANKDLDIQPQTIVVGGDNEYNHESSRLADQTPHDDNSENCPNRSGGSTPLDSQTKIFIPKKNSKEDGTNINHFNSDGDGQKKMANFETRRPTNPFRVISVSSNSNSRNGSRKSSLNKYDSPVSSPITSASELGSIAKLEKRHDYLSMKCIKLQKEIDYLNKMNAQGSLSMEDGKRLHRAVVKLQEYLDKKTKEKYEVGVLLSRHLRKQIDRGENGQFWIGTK
Nature of the data set: negative-stain electron microscopy with 2D class averages.

Data set [3] concerns the molecule itself. The description is as above.
The target in data set [4] is Otherwise Cys-less septin hetero-octamers capped with Cdc11(Δα0) E294C labeled with AF555 (S. cerevisiae) (UniProt P32458). Nature of the data set: FRET or BRET. In general terms: Bioluminescence resonance energy transfer reports proximity on the nanometre scale.
Data set [5] has as its target T2, (His)8-3C protease cleavage site-Bni5 fusion (wild-type Bni5) (S. cerevisiae), P53890.
T2 chain: T1 sequence (looked up)
Nature of the data set: AUC. To be noted: remark: other sources report otherwise.

Data set [6] has as its target T2, (His)8-3C protease cleavage site-Bni5 …. In words: field-flow fractionation with multi-angle light scattering. To be noted: remark: other sources report otherwise.

7 molecules from publication PMC5138130 (Journal of molecular biology, 2016) can be followed below.

Substitutions are numbered along the chain they refer to. Names may count otherwise. “And” between values parts separate entries of the source, which are not always exact repeats. Identical values can stand only once.

As usually defined, the stoichiometry N is a count of units in the complex or per binding partner. One may read the EC50 as the concentration giving half of the maximal effect. For orientation: Kd means the concentration at which binding is half-saturated. Read a low Kd as higher affinity.

On to “Bni5(1–313) used for FFF-MALS (from UniProt P53890 1-313) (domain or fragment)”, for which, in data set [1], the stoichiometry N is 2 and 4.

B1: Cdc11 (wild type), terminal subunit of the septin hetero-octamer (natural protein, S. cerevisiae, UniProt P32458 1-415, looked up)
chain: MSGIIDASSALRKRKHLKRGITFTVMIVGQSGSGRSTFINTLCGQQVVDTSTTILLPTDTSTEIDLQLREETVELEDDEGVKIQLNIIDTPGFGDSLDNSPSFEIISDYIRHQYDEILLEESRVRRNPRFKDGRVHCCLYLINPTGHGLKEIDVEFIRQLGSLVNIIPVISKSDSLTRDELKLNKKLIMEDIDRWNLPIYNFPFDEDEISDEDYETNMYLRTLLPFAIIGSNEVYEMGGDVGTIRGRKYPWGILDVEDSSISDFVILRNALLISHLHDLKNYTHEILYERYRTEALSGESVAAESIRPNLTKLNGSSSSSTTTRRNTNPFKQSNNINNDVLNPASDMHGQSTGENNETYMTREEQIRLEEERLKAFEERVQQELLLKRQELLQREKELREIEARLEKEAKIKQEE
With B1, the binding result in data set [2] is given as “binds”.

B2: Cdc11-capped septin hetero-octamers containing Cdc10-GFP as the sole source of Cdc10 (complex, S. cerevisiae)
chain 1: B1 chain
chain 2: MSAATATAAPVPPPVGISNLPNQRYKIVNEEGGTFTVMLCGESGLGKTTFINTLFQTVLKRADGQQHRQEPIRKTVEIDITRALLEEKHFELRVNVIDTPGFGDNVNNNKAWQPLVDFIDDQHDSYMRQEQQPYRTKKFDLRVHAVLYFIRPTGHGLKPIDIETMKRLSTRANLIPVIAKADTLTAQELQQFKSRIRQVIEAQEIRIFTPPLDADSKEDAKSGSNPDSAAVEHARQLIEAMPFAIVGSEKKFDNGQGTQVVARKYPWGLVEIENDSHCDFRKLRALLLRTYLLDLISTTQEMHYETYRRLRLEGHENTGEGNEDFTLPAIAPARKLSHNPRYKEEENALKKYFTDQVKAEEQRFRQWEQNIVNERIRLNGDLEEIQGKVKKLEEQVKSLQVKKSHLK
chain 3: MSLKEEQVSIKQDPEQEERQHDQFNDVQIKQESQDHDGVDSQYTNGTQNDDSERFEAAESDVKVEPGLGMGITSSQSEKGQVLPDQPEIKFIRRQINGYVGFANLPKQWHRRSIKNGFSFNLLCVGPDGIGKTTLMKTLFNNDDIEANLVKDYEEELANDQEEEEGQGEGHENQSQEQRHKVKIKSYESVIEENGVKLNLNVIDTEGFGDFLNNDQKSWDPIIKEIDSRFDQYLDAENKINRHSINDKRIHACLYFIEPTGHYLKPLDLKFMQSVYEKCNLIPVIAKSDILTDEEILSFKKTIMNQLIQSNIELFKPPIYSNDDAENSHLSERLFSSLPYAVIGSNDIVENYSGNQVRGRSYPWGVIEVDNDNHSDFNLLKNLLIKQFMEELKERTSKILYENYRSSKLAKLGIKQDNSVFKEFDPISKQQEEKTLHEAKLAKLEIEMKTVFQQKVSEKEKKLQKSETELFARHKEMKEKLTKQLKALEDKKKQLELSINSASPNVNHSPVPTKKKGFLR
chain 4: MDPLSSVQPASYVGFDTITNQIEHRLLKKGFQFNIMVVGQSGLGKSTLINTLFASHLIDSATGDDISALPVTKTTEMKISTHTLVEDRVRLNINVIDTPGFGDFIDNSKAWEPIVKYIKEQHSQYLRKELTAQRERFITDTRVHAILYFLQPNGKELSRLDVEALKRLTEIANVIPVIGKSDTLTLDERTEFRELIQNEFEKYNFKIYPYDSEELTDEELELNRSVRSIIPFAVVGSENEIEINGETFRGRKTRWSAINVEDINQCDFVYLREFLIRTHLQDLIETTSYIHYEGFRARQLIALKENANSRSSAHMSSNAIQR
Regarding B2, the binding result in data set [3] is reported as “binds”.

B3: Wild-type Cdc11-capped septin hetero-octamers (Cdc11-Cdc12-Cdc3-Cdc10-Cdc10-Cdc3-Cdc12-Cdc11) used for EM (complex, S. cerevisiae)
chain 1: B1 chain
chain 2: B2 chain 2
chain 3: B2 chain 3
chain 4: B2 chain 4
As for B3, the binding result in data set [3] is given as “binds”.

B4: Bni5(314–448) C375 labeled with AF647 (domain or fragment)
chain: TRRPTNPFRVISVSSNSNSRNGSRKSSLNKYDSPVSSPITSASELGSIAKLEKRHDYLSMKCIKLQKEIDYLNKMNAQGSLSMEDGKRLHRAVVKLQEYLDKKTKEKYEVGVLLSRHLRKQIDRGENGQFWIGTK
modifications: AF647 (Alexa Fluor 647 maleimide) on C375
B4 returned an EC50 in data set [4] of 614 nM.

B5: Bni5(C144R C266F) labeled with AF647 at C375 (natural protein)
chain: T1 sequence (looked up) with C144R, C266F
modifications: AF647 (Alexa Fluor 647 maleimide) on C375
In data set [4], B5 displayed a Kd of 154 nM. In other words, the sub-micromolar range.

B6: (His)8-3C protease cleavage site-Bni5 fusion (wild-type Bni5), P53890 1-448 (natural protein)
chain: T1 sequence (looked up)
With B6, the stoichiometry N in data set [5] was 2; in data set [6] it was 2 and 4.
